The text below walks through data of the emibetuzumab library of Makowski et al. (2022).

B1: VH:VL chains; a variant is named by its letters at X, in order (parent)
chain 1: QVQLVQSGAEVKKPGASVKVSCKASGYTFTDYXMHWVRQAPGQGLEWMGXVNPNXXXTTYNQKFEGRVTMTTDTSTSTAYMELRSLRSDDTAVYYCARXNXLDXWGQGTTVTVSS
chain 2: DIQMTQSPSSLSASVGDRVTITCSVSSSVSSIYLHWYQQKPGKAPKLLIYSTSNLASGVPSRFSGSGSGTDFTLTISSLQPEDFATYYCQVYSGYPLTFGGGTKVEIK

The variants in this data set derive from B1. The data set can be described thus: yeast display scFab, FACS + sequencing. The method, boiled down: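 Heavy-chain CDR mutant scFab yeast surface library, FACS-sorted after labelling with biotinylated ovalbumin (260 μg/mL in PBSB, 3 h, room temperature) or soluble membrane proteins (130 μg/mL, 20 min on ice), plus anti-Myc. Gates collected the top 25% and bottom 10% of binders, and samples from two replicates were deep sequenced. Non-specific binding call: a sequence was positive if found in ≥3 of 4 positive samples (membrane protein and ovalbumin pooled) and no negatives, and negative by the converse rule.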
As to VRAGDDAV, the non-specific binding call was “no binding”.
For ATKTAFVS chain 1 M34I the value was “no binding”; for FAGGGDLV, “no binding”.
As to SEEEGASV, the non-specific binding call was “no binding”.
For FAAGGAWA the value was “binds”; for SEARSAWA, “no binding”; for YARRAAVS, “binds”.
The result for VRRGSSGD reads “binds”; that for VEAGDSSS, “no binding”.
For YAGRGDVS the value was “no binding”.
VKARGAGV: the non-specific binding call is recorded as “binds”.
The result for VAGTGSSV reads “no binding”; that for DAKEGDLV, “no binding”; that for YKARGAGV, “binds”.
For YKAGGAWD the value was “binds”; for FRGRGAVY, “binds”.
Take VKRGDDVV: the non-specific binding call was “no binding”.
Regarding VKTGGSLD, the non-specific binding call is given as “no binding”.
The result for FTRESFAA reads “binds”; that for YRRGGALV, “binds”.
The result for FRGRGSAA reads “binds”; that for SERRSSAF, “no binding”.
For VRGKGASA the value was “binds”; for SRTRGFVV, “binds”; for FAGTGSWD, “no binding”.
For the variant FRKGGAAA, the non-specific binding call is listed as “binds”.
As to VGGGAAGV, the non-specific binding call is reported as “no binding”.
For DEAGGDGY the value was “no binding”.
For the variant YKGKGSLF, the non-specific binding call is on record as “binds”.
For SRGKGALD the value was “binds”; for VTRGASGA, “no binding”.
For YAGAGAVY the value was “no binding”; for FRGGSAVD, “binds”; for DTKRTAGD, “no binding”.
Take VTGGGDGA: the non-specific binding call is “no binding”.
For SARGGYWY the value was “binds”.
Take YARADDGS: the non-specific binding call is given as “no binding”.
As to YTKRGSAA, the non-specific binding call is recorded as “binds”.
The result for DTTGSDWA reads “no binding”.
For AKGGGDVV the value was “no binding”.
With YKGGSAGA, the non-specific binding call is “binds”.
The result for YKGGSAGY reads “binds”; that for FKARGALV, “binds”.
For SRKEGAAY the value was “no binding”.
Regarding VTETGDSV, the non-specific binding call was “no binding”.
Regarding YRRRGASF, the non-specific binding call is given as “binds”.
The result for FKGRGAAV reads “binds”; that for AEGGTDVV, “no binding”; that for YRTRGAWA, “binds”.
On to DGGGNDLV, for which the non-specific binding call was “no binding”.
Consider YTGGDDVD, for which the non-specific binding call is “no binding”.
Turning to FRRGGSVD, the non-specific binding call is on record as “binds”.
The result for ARGRSDVA reads “no binding”; that for VRAGDSSA, “no binding”.
For YRAKSSSS the value was “binds”; for YRRRGAAF, “binds”.
For YRRRGAAA the value was “binds”; for YKGRGAAY, “binds”; for DATGGAVA, “no binding”.
For VRGKGSGA, the non-specific binding call was “binds”.
For YRRGAAGD, the non-specific binding call was “binds”.
For ARRGSDLA the value was “no binding”; for FRKRGSVF, “binds”; for SETTDAGV, “no binding”.
For YKARSALF the value was “binds”; for DAEATDVA, “no binding”.
For VRRRGAAD the value was “binds”; for YTRGASSS, “no binding”.
Consider SRAGGSLY, for which the non-specific binding call is recorded as “binds”.
The result for YRGKASWD reads “binds”; that for DTGGGDAV, “no binding”.
Consider YRGKGALA, for which the non-specific binding call was “binds”.
For VEEEGSWV the value was “no binding”; for YEGGGDGA, “no binding”.
The result for FAGRGSAD reads “binds”; that for VTGANDWV, “no binding”.
For the variant SRRGSASS, the non-specific binding call was “binds”.
For DRGRDSSA the value was “no binding”; for DGAKGDGV, “no binding”.
For VRRGSDGV, the non-specific binding call was “no binding”.
For DGGGASSA the value was “no binding”.
The result for FRAEGSVA reads “binds”; that for FGAKGSSS, “binds”; that for ARGRSDAV, “no binding”.
With YRAGDSWD, the non-specific binding call is on record as “no binding”.
The result for YTGGDDGF reads “no binding”; that for YKTRGAVS, “binds”.
For the variant YRAGGYVF, the non-specific binding call is reported as “binds”.
Turning to FRTRDVGF, the non-specific binding call was “binds”.
For SETTDSSA the value was “no binding”; for FGRRGAGV, “binds”.
For VEGGTAGS the value was “no binding”; for VRTEDALV, “no binding”.
The result for ATGANAGD reads “no binding”; that for DARETFLD, “no binding”.
As to DAEEDAGY, the non-specific binding call is “no binding”.
For VTKTGDAV the value was “no binding”; for VTKAASWV, “no binding”.
For VAAAGAAV the value was “no binding”.
Regarding YRKGSSGV, the non-specific binding call is “binds”.
For FAEGDDVV the value was “no binding”; for YRTKGAAD, “binds”; for FRRRGAWA, “binds”.
The result for YKGKDSVD reads “no binding”.
The result for YKRGAAWS reads “binds”.
With SKGRSDVV, the non-specific binding call is given as “no binding”.
For VKTGGDVY the value was “no binding”; for DEGKAAGS, “no binding”.
For VEGAADVD, the non-specific binding call was “no binding”.
Regarding VEEASSWA, the non-specific binding call is “no binding”.
For DREGDDAV the value was “no binding”; for FKGEGAGV, “no binding”.
The result for YAGRGSAS reads “no binding”; that for VRRGGSGS, “binds”; that for VRTADVGV, “binds”.
The result for VTGEDAVV reads “no binding”; that for YTGGDSVA, “no binding”.
Turning to FARGGSAD, the non-specific binding call was “no binding”.
